The values below come from US20250257148A1 (CROSSLINK THERAPEUTICS, published 2025).

Data set [1] concerns the molecule itself. As to the kind of experiment: size exclusion chromatography, 1 mM ATP against 1 mM ADP; ATP mediated shift read as homodimerization. The procedure:
(§1) To evaluate the behavior of the constructs in the presence of ATP and ADP samples of the purified protein (1 mg each) were buffer-exchanged on PD-10 columns (Cytiva 17085101) according to manufacturer instructions. For the buffer exchange PD-10 desalting columns were equilibrated with target buffer (20 mM Tris-Cl pH 8.0, 50 mM NaCl, 5 mM MgCl₂, 10% glycerol) containing either 1 mM ATP or 1 mM ADP. One milligram (100 μl of 10 mg/ml stock) of protein was added to each column along with 2.4 ml of target buffer, the column was centrifuged at 1000×g for 2 minutes in a 50-ml conical tube, and the eluate was collected. Buffer-exchanged proteins were then concentrated to 0.5 ml (˜60 μM) and loaded onto a Superdex S200 Increase column (Cytiva) equilibrated in the appropriate buffer containing ATP or ADP and eluted at 0.5 ml/min.
(In general: Size exclusion chromatography separates by hydrodynamic size, large species first.)

Data set [2] concerns the molecule itself. The data set is described as follows: size exclusion chromatography, 1 mM ATP against 1 mM ADP; homodimerization. The procedure:
as §1

B1: Construct 159: CH1-CH2-TAP1 NBD (Cys-less; modified D-helix; D668N)-(G4S)2-anti-CD3 VHH-(G4S)2-anti-BCMA VHH-Hisx8 (other)
chain: METEFFQQNQTGGGGSGLQTVRSFGGGGGSGGSGLLTPLHLEGLVQFQDVSFAYPNRPDVLVLQGLTFTLRPGEVTALVGPNGSGKSTVAALLQNLYQPTGGQLLLDGKPLPQYEHRYLHRQVAAVGQEPQVFGRSLQENIAYGLTQKPTMEEITAAAVKSGAHSFISGLPQGYDTEVDEAGSQLSGGQRQAVALARALIRKPSVLILDNATSALDAGNQLRVQRLLYESPERYSRSVLLITQHLSLVEQADHILFLEGGAIREGGTHQQLMEKKGSYWAMVQAPADAPEGGGGSGGGGSGGGGSQVQLVESGGGLVQPGGSLRLSCAASGSIFSANTMGWYRQAPGKQRELVAGMNTSGSTVYGDSVKGRFTISRDNAKNIAYLQMNSLIPEDTAVYYCTLVQRGPNYWGQGTQVTVSSGGGGSGGGGSEVQLVESGGGLVQAGGSLRLSCAASGRTFTMGWFRQAPGKEREFVAAISLSPTLAYYAESVKGRFTISRDNAKNTVVLQMNSLKPEDTALYYCAADRKSVMSIRPDYWGQGTQVTVSSHHHHHHHH
notes: Single polypeptide expressed in E. coli
B1: in data set [1], the binding result is “binds”.

B2: Construct 156: Hisx8-anti-BCMA VHH-(G4S)2-anti-CD3 VHH-(G4S)2-CH1-CH2-TAP1 NBD (Cys-less; modified D-helix; D668N) (other)
chain: MHHHHHHHHEVQLVESGGGLVQAGGSLRLSCAASGRTFTMGWFRQAPGKEREFVAAISLSPTLAYYAESVKGRFTISRDNAKNTVVLQMNSLKPEDTALYYCAADRKSVMSIRPDYWGQGTQVTVSSGGGGSGGGGSQVQLVESGGGLVQPGGSLRLSCAASGSIFSANTMGWYRQAPGKQRELVAGMNTSGSTVYGDSVKGRFTISRDNAKNIAYLQMNSLIPEDTAVYYCTLVQRGPNYWGQGTQVTVSSGGGGSGGGGSETEFFQQNQTGGGGSGLQTVRSFGGGGGSGGSGLLTPLHLEGLVQFQDVSFAYPNRPDVLVLQGLTFTLRPGEVTALVGPNGSGKSTVAALLQNLYQPTGGQLLLDGKPLPQYEHRYLHRQVAAVGQEPQVFGRSLQENIAYGLTQKPTMEEITAAAVKSGAHSFISGLPQGYDTEVDEAGSQLSGGQRQAVALARALIRKPSVLILDNATSALDAGNQLRVQRLLYESPERYSRSVLLITQHLSLVEQADHILFLEGGAIREGGTHQQLMEKKGSYWAMVQAPADAPEGGGGS
notes: Single polypeptide expressed in E. coli; Here CH1-CH2 means Coupling Helix 1 and Coupling Helix 2 (the CAP)
Turning to B2, the binding result in data set [1] was “binds”.

B3: Construct 157: Hisx8-anti-BCMA VHH-(G4S)2-CH1-CH2-TAP1 NBD (Cys-less; modified D-helix; D668N)-(G4S)2-anti-CD3 VHH (other)
chain: MHHHHHHHHEVQLVESGGGLVQAGGSLRLSCAASGRTFTMGWFRQAPGKEREFVAAISLSPTLAYYAESVKGRFTISRDNAKNTVVLQMNSLKPEDTALYYCAADRKSVMSIRPDYWGQGTQVTVSSGGGGSGGGGSETEFFQQNQTGGGGSGLQTVRSFGGGGGSGGSGLLTPLHLEGLVQFQDVSFAYPNRPDVLVLQGLTFTLRPGEVTALVGPNGSGKSTVAALLQNLYQPTGGQLLLDGKPLPQYEHRYLHRQVAAVGQEPQVFGRSLQENIAYGLTQKPTMEEITAAAVKSGAHSFISGLPQGYDTEVDEAGSQLSGGQRQAVALARALIRKPSVLILDNATSALDAGNQLRVQRLLYESPERYSRSVLLITQHLSLVEQADHILFLEGGAIREGGTHQQLMEKKGSYWAMVQAPADAPEGGGGSGGGGSGGGGSQVQLVESGGGLVQPGGSLRLSCAASGSIFSANTMGWYRQAPGKQRELVAGMNTSGSTVYGDSVKGRFTISRDNAKNIAYLQMNSLIPEDTAVYYCTLVQRGPNYWGQGTQVTVSS
notes: as for B1
In the case of B3, in data set [2], the binding result was “binds”.
